B1: TTM-001 capsid variant (AAV particle comprising the TTM-001 AAV9 capsid variant) (other)
chain 1: MAADGYLPDWLEDNLSEGIREWWALKPGAPQPKANQQHQDNARGLVLPGYKYLGPGNGLDKGEPVNAADAAALEHDKAYDQQLKAGDNPYLKYNHADAEFQERLKEDTSFGGNLGRAVFQAKKRLLEPLGLVEEAAKTAPGKKRPVEQSPQEPDSSAGIGKSGAQPAKKRLNFGQTGDTESVPDPQPIGEPPAAPSGVGSLTMASGGGAPVADNNEGADGVGSSSGNWHCDSQWLGDRVITTSTRTWALPTYNNHLYKQISNSTSGGSSNDNAYFGYSTPWGYFDFNRFHCHFSPRDWQRLINNNWGFRPKRLNFKLFNIQVKEVTDNNGVKTIANNLTSTVQVFTDSDYQLPYVLGSAHEGCLPPFPADVFMIPQYGYLTLNDGSQAVGRSSFYCLEYFPSQMLRTGNNFQFSYEFENVPFHSSYAHSQSLDRLMNPLIDQYLYYLSKTINGSGSPHSKAQNQQTLKFSVAGPSNMAVQGRNYIPGPSYRQQRVSTTVTQNNNSEFAWPGASSWALNGRNSLMNPGPAMASHKEGEDRFFPLSGSLIFGKQGTGRDNVDADKVMITNEEEIKTTNPVATESYGQVATNHQSAQAQAQTGWVQNQGILPGMVWQDRDVYLQGPIWAKIPHTDGNFHPSPLMGGFGMKHPPPQILIKNTPVPADPPTAFNKDKLNSFITQYSTGQVSVEIEWELQKENSKRWNPEIQYTSNYYKSNNVEFAVNTEGVYSEPRPIGTRYLTRNL
chain 2: TAPGKKRPVEQSPQEPDSSAGIGKSGAQPAKKRLNFGQTGDTESVPDPQPIGEPPAAPSGVGSLTMASGGGAPVADNNEGADGVGSSSGNWHCDSQWLGDRVITTSTRTWALPTYNNHLYKQISNSTSGGSSNDNAYFGYSTPWGYFDFNRFHCHFSPRDWQRLINNNWGFRPKRLNFKLFNIQVKEVTDNNGVKTIANNLTSTVQVFTDSDYQLPYVLGSAHEGCLPPFPADVFMIPQYGYLTLNDGSQAVGRSSFYCLEYFPSQMLRTGNNFQFSYEFENVPFHSSYAHSQSLDRLMNPLIDQYLYYLSKTINGSGSPHSKAQNQQTLKFSVAGPSNMAVQGRNYIPGPSYRQQRVSTTVTQNNNSEFAWPGASSWALNGRNSLMNPGPAMASHKEGEDRFFPLSGSLIFGKQGTGRDNVDADKVMITNEEEIKTTNPVATESYGQVATNHQSAQAQAQTGWVQNQGILPGMVWQDRDVYLQGPIWAKIPHTDGNFHPSPLMGGFGMKHPPPQILIKNTPVPADPPTAFNKDKLNSFITQYSTGQVSVEIEWELQKENSKRWNPEIQYTSNYYKSNNVEFAVNTEGVYSEPRPIGTRYLTRNL
chain 3: MASGGGAPVADNNEGADGVGSSSGNWHCDSQWLGDRVITTSTRTWALPTYNNHLYKQISNSTSGGSSNDNAYFGYSTPWGYFDFNRFHCHFSPRDWQRLINNNWGFRPKRLNFKLFNIQVKEVTDNNGVKTIANNLTSTVQVFTDSDYQLPYVLGSAHEGCLPPFPADVFMIPQYGYLTLNDGSQAVGRSSFYCLEYFPSQMLRTGNNFQFSYEFENVPFHSSYAHSQSLDRLMNPLIDQYLYYLSKTINGSGSPHSKAQNQQTLKFSVAGPSNMAVQGRNYIPGPSYRQQRVSTTVTQNNNSEFAWPGASSWALNGRNSLMNPGPAMASHKEGEDRFFPLSGSLIFGKQGTGRDNVDADKVMITNEEEIKTTNPVATESYGQVATNHQSAQAQAQTGWVQNQGILPGMVWQDRDVYLQGPIWAKIPHTDGNFHPSPLMGGFGMKHPPPQILIKNTPVPADPPTAFNKDKLNSFITQYSTGQVSVEIEWELQKENSKRWNPEIQYTSNYYKSNNVEFAVNTEGVYSEPRPIGTRYLTRNL

Legend:
ALPL = target: T1, ALPL (Homo sapiens, UniProt P05186); assay: Inhibition of TTM-002 transduction by small molecule ALPL inhibitors in HeLa cells expressing ALPL; format: cell-based; parameters: endogenous in cells; host or cells: HeLa
T1 sequence (P05186 18-501): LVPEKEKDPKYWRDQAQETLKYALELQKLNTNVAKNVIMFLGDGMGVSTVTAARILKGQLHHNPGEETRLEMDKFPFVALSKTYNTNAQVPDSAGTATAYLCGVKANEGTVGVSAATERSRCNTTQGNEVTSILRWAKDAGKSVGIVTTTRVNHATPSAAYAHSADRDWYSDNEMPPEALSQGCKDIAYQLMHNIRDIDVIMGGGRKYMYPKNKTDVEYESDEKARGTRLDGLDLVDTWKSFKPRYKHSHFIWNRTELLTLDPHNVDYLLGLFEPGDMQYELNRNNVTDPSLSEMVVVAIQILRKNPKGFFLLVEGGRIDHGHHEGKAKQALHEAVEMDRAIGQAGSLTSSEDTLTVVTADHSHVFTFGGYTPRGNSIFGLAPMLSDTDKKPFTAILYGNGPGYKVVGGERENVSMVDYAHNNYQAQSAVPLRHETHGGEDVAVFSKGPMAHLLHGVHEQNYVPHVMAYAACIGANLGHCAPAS
Description: An inhibitor of ALPL was also investigated to determine if blocking the ALPL receptor would reduce cellular transduction of the TTM-002 capsid variant. […] The inhibitor or a vehicle control (equivalent amount of DMSO) was added to HeLa cells expressing ALPL 1 hour prior to transduction with an AAV viral particle comprising the TTM-002 capsid variant or an AAV9 control capsid and expressing a GFP-luciferase transgene under the control of a CAG promoter. The cells were then transduced with 1E4 VG/cell of an AAV particle comprising the TTM-002 capsid variant or an AAV9 control capsid. Media and virus were removed 4 hours post transduction and luciferase activity was measured (RLU) 24 hours post transduction.

[1] = target: T2, murine ALPL ortholog expressed on HEK 293T cells (NM_001287172.1) (mouse, UniProt P09242 18-501); assay: cell-based or functional assay
T2 sequence: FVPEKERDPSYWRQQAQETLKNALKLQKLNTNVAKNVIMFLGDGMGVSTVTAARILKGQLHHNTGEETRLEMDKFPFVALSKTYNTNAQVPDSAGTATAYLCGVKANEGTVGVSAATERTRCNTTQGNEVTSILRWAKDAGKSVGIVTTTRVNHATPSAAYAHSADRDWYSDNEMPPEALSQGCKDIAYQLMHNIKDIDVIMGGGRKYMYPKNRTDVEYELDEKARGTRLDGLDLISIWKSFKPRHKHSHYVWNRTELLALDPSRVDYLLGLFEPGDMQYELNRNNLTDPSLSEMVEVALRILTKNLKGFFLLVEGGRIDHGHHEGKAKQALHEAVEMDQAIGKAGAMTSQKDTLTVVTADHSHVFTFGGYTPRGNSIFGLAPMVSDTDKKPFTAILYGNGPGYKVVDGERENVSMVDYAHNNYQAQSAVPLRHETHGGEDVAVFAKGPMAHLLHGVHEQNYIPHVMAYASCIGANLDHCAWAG

[2] = target: T3, human ALPL expressed on cells (alkaline phosphatase tissue-nonspecific isozyme, NM_000478.4) (human, UniProt P05186 18-501); assay: cell-based or functional assay
T3 sequence: T1 sequence (P05186 18-501)

[3] = target: T3, human ALPL expressed on cells (alkaline …); assay: cell-based or functional assay; remark: listed apart in the source
[4] = target: T4, ALPL with a deletion of the ER localization signal (ALPL transcript variant 2, NM_001127501) (human, UniProt P05186 56-501); assay: cell-based or functional assay
T4 sequence: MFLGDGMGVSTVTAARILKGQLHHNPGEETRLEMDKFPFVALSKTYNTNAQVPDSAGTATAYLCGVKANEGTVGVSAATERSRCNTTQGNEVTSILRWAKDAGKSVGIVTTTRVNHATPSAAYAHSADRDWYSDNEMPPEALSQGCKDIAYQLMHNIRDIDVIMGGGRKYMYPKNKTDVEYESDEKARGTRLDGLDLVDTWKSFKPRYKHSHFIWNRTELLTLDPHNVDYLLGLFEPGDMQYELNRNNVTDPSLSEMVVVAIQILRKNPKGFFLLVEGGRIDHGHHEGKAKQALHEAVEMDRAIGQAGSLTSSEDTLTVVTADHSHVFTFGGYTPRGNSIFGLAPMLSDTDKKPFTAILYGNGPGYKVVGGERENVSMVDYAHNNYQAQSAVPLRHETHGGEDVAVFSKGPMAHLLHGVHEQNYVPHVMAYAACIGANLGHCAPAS

[5] = target: T3, human ALPL expressed on cells (alkaline …); assay: binding/internalization: AAV incubated 2 or 3 h with ALPL transfected HEK 293T cells, washed, viral genomes quantified
[6] = target: T5, AAVR (universal AAV entry factor) expressed on HEK 293T cells (UniProt Q8IZA0 1-1049); assay: binding/internalization: AAV incubated 2 or 3 h with AAVR transfected HEK 293T cells, washed, viral genomes quantified
T5 construct: whole, on cells; also called AAVR positive control
T5 sequence: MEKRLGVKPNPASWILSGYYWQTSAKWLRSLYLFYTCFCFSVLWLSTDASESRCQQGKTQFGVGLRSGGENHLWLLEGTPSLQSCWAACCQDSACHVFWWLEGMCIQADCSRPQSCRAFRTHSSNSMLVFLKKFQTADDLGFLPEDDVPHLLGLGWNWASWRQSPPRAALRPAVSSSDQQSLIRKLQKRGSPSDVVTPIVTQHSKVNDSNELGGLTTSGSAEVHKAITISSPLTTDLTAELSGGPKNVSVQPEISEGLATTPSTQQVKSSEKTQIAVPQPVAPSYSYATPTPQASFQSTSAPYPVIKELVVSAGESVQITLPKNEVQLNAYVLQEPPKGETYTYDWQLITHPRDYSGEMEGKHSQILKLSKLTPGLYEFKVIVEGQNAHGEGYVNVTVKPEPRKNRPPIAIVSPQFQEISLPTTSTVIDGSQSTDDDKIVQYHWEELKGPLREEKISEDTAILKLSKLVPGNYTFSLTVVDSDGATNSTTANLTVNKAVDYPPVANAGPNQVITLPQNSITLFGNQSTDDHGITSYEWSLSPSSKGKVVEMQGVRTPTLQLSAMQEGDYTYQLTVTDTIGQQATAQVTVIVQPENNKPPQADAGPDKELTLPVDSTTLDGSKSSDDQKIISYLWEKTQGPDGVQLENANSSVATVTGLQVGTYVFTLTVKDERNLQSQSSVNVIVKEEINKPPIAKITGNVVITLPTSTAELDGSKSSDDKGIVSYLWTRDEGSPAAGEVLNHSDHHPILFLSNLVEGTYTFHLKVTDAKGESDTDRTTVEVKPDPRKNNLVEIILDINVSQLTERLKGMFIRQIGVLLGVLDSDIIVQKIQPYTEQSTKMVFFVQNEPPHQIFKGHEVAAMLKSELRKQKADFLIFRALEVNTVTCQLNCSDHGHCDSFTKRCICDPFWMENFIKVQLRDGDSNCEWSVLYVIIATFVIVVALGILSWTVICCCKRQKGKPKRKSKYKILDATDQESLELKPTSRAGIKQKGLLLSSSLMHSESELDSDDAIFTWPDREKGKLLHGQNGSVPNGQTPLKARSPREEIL

[7] = target: T3, human ALPL expressed on cells (alkaline …); assay: cell-based or functional assay; remark: listed apart in the source

Molecule | IC50 (ALPL) [nM] | effect on TTM-002 transduction (ALPL) | fold change in luciferase activity relative to the pCMV6 control cells (cells transfected with murine ALPL protein) [1] [fold] | fold change in luciferase activity relative to the pCMV6 control cells (cells transfected with human ALPL protein) [2] [fold] | fold change in luciferase activity relative to the pCMV6 control cells (cells transfected with ALPL) [3] [fold] | fold change in luciferase activity relative to the pCMV6 control cells (cells transfected with ALPL comprising a deletion of the ER localization signal) [4] [fold] | fold change in viral gene expression (2^-ΔΔCT) relative to pCMV6 transfected cells [5] [fold] | fold change in viral gene expression (2^-ΔΔCT) relative to pCMV6 transfected cells [6] [fold] | luciferase activity, fold change relative to pCMV6 transfected HEK 293T cells (ALPL transfected cells) [7] [fold]
COc1ccc(Cl)cc1S(=O)(=O)Nc1cncc(C(N)=O)c1 [SBI-425, 5-((5-chloro-2-methoxyphenyl)sulfonamido) nicotinamide] | 0.34 | significantly inhibited TTM-002 transduction | – | – | – | – | – | – | –
B1 | – | – | 18 | 22 | 22 | 2 | 3.16 | 6.64 | 35
